Source: patent US20130004490A1 (UNITED STATES OF AMERICA AS REPRESENTED BY THE SECRETARY …, published 2013)

Molecular target: T1, mouse ICAM-1 expressed on activated mouse endothelial cells (mouse, UniProt P13597 28-537)
T1 construct: whole, on cells
Experiment: FITC-labeled γ3 carriers on activated endothelial cells, fluorescence microscopy, 1 h 37 C
Method: Binding of FITC-labeled γ3 carriers to activated HUVEC cells (bars) vs ICAM-1-negative 293 cells (dotted line) was quantified by fluorescence microscopy after 1 h incubation at 37° C., in the absence or presence of excess γ3, anti-ICAM, or γ3 scramble peptide. The γ3 carriers bound to native ICAM-1 expressed by both activated human and mouse endothelial cells, but not control 293 cells which are known to be voided of ICAM-1 expression (FIG. 5C).

T1 sequence (P13597 28-537): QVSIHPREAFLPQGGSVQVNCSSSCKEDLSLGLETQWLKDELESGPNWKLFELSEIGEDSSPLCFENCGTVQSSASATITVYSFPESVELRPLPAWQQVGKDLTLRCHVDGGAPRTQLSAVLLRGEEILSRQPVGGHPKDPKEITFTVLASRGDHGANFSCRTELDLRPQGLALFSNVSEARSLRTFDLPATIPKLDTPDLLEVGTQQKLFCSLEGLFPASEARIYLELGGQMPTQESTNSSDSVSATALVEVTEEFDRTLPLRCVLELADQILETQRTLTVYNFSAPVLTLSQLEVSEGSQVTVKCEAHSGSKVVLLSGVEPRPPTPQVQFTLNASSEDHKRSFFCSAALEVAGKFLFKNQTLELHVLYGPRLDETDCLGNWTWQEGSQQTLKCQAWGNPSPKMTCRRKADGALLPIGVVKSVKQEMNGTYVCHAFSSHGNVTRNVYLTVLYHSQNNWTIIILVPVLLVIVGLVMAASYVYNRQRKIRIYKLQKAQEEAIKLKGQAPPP

B1: ICAM-1 affinity peptide γ3, a 17-mer polypeptide derived from fibrinogen (peptide)
peptide: NNQKIVNLKEKVAQLEA
notes: also called γ3 peptide; γ3 carriers
Question: Does B1 bind?
Answer: binds
